Experimental data: the supplement of paper PMC7125110
± gives the standard error. Fewer inactive variants are shown than the library holds.

B1: glmS ribozyme (parent)
chain: AUAAAAGCGCCAGAACUACAGAAAUGUAGUUGACGAGGAGGAGGUUUAUCGAAUUUUCGGCGGAUGCCUCCAAA

Tests used:
Conditions in all cases: with glucosamine-6-phosphate
[1] = variants of: B1; assay: self-cleavage kobs at 160 uM GlcN6P; higher = faster cleavage; RNA array
Outline: (§1)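 Weighted Michaelis–Menten fits across concentrations supplied kcat and KM, based on kobs from one- or two-exponential decay fits to normalised per-tile medians. The data came from barcoded ribozyme variants transcribed in situ by E. coli RNA polymerase on sequenced MiSeq chips and tracked at 37 °C by a hybridised Cy3 probe. Glucosamine-6-phosphate (40 μM to 10 mM) in HEPES/KCl/Mg(OAc)2 buffer was flowed in.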

[2] = variants of: B1; assay: self-cleavage kobs at 640 uM GlcN6P; higher = faster cleavage; RNA array
Outline: as §1

[3] = variants of: B1; assay: self-cleavage kobs at 2500 uM GlcN6P; higher = faster cleavage; RNA array
Outline: as §1

[4] = variants of: B1; assay: self-cleavage kobs at 10000 uM GlcN6P; higher = faster cleavage; RNA array
Outline: as §1

Variant	self-cleavage kobs at 160 uM GlcN6P [1]	self-cleavage kobs at 640 uM GlcN6P [2]	self-cleavage kobs at 2500 uM GlcN6P [3]	self-cleavage kobs at 10000 uM GlcN6P [4]
C34A C67G C68A	6.53e-05 ± 1.9e-05 s⁻¹	6.33e-05 ± 2e-05 s⁻¹	0.000284 ± 8.7e-05 s⁻¹	
U31G A52C	< 1e-05 s⁻¹	< 1e-05 s⁻¹		
G35U C58A C71G	< 1e-05 s⁻¹	< 1e-05 s⁻¹		
G32C C34U A36U C61U	< 1e-05 s⁻¹	< 1e-05 s⁻¹		
A6C C10A	< 1e-05 s⁻¹	< 1e-05 s⁻¹	< 1e-05 s⁻¹	< 1e-05 s⁻¹
G9C C34A	< 1e-05 s⁻¹	< 1e-05 s⁻¹	< 1e-05 s⁻¹	
A33G G37U C50G	6.35e-05 ± 3.1e-05 s⁻¹		0.000141 ± 4.1e-05 s⁻¹	
U45G C50G C71U	< 1e-05 s⁻¹			
A15G C16G A42G C67G	7.28e-05 ± 3.4e-05 s⁻¹	0.000348 ± 6.7e-05 s⁻¹	0.000115 ± 3.5e-05 s⁻¹	0.000521 ± 0.00022 s⁻¹
G26U G35A C50G U56G	6.16e-05 ± 2.2e-05 s⁻¹		8.89e-05 ± 1.8e-05 s⁻¹	
C11A G43C C61G	< 1e-05 s⁻¹	< 1e-05 s⁻¹	< 1e-05 s⁻¹	
U46C U54A	0.000326 ± 8.6e-05 s⁻¹	0.00148 ± 0.00038 s⁻¹		
A15C C34A G44U	< 1e-05 s⁻¹	< 1e-05 s⁻¹	< 1e-05 s⁻¹	
A6U U45A A48G	< 1e-05 s⁻¹	< 1e-05 s⁻¹		
C10A G41U C68G	< 1e-05 s⁻¹		< 1e-05 s⁻¹	
G35A U54G	< 1e-05 s⁻¹	< 1e-05 s⁻¹	< 1e-05 s⁻¹	
C34A G63A	< 1e-05 s⁻¹	< 1e-05 s⁻¹	< 1e-05 s⁻¹	
A6U U31G G41U A64C	< 1e-05 s⁻¹	< 1e-05 s⁻¹	< 1e-05 s⁻¹	
A33U A48G	< 1e-05 s⁻¹	< 1e-05 s⁻¹	< 1e-05 s⁻¹	
G13U G51C U65G	< 1e-05 s⁻¹	< 1e-05 s⁻¹		
G13A G41U U49A G51C	< 1e-05 s⁻¹			
G35A A39C	< 1e-05 s⁻¹	< 1e-05 s⁻¹	< 1e-05 s⁻¹	< 1e-05 s⁻¹
C16A U31C U56G	3.96e-05 ± 1.5e-05 s⁻¹	9.16e-05 ± 1.9e-05 s⁻¹	0.000266 ± 5.4e-05 s⁻¹	
C50U C67G	0.000148 ± 6.3e-05 s⁻¹	2.88e-05 ± 1.2e-05 s⁻¹	2.44e-05 ± 1.1e-05 s⁻¹	
A12G C34U G41A	< 1e-05 s⁻¹	< 1e-05 s⁻¹		

Variant	self-cleavage kobs at 160 uM GlcN6P [1]	self-cleavage kobs at 640 uM GlcN6P [2]	self-cleavage kobs at 2500 uM GlcN6P [3]	self-cleavage kobs at 10000 uM GlcN6P [4]
C10A A33C G40C C70U	< 1e-05 s⁻¹	< 1e-05 s⁻¹		
A33C A42U U46C U54G	< 1e-05 s⁻¹		< 1e-05 s⁻¹	
U30A C50A	< 1e-05 s⁻¹			
C34U C70U	< 1e-05 s⁻¹	< 1e-05 s⁻¹		
A6C G40A A52G C67U	< 1e-05 s⁻¹	< 1e-05 s⁻¹	< 1e-05 s⁻¹	
A14U U55A U69A	0.000101 ± 2.7e-05 s⁻¹		8.95e-05 ± 1.1e-05 s⁻¹	4.58e-05 ± 2e-05 s⁻¹
G7A C58A	< 1e-05 s⁻¹	< 1e-05 s⁻¹	< 1e-05 s⁻¹	
A6C A14C G44U U45C	< 1e-05 s⁻¹		< 1e-05 s⁻¹	
G41U A48U U49G	< 1e-05 s⁻¹	< 1e-05 s⁻¹	< 1e-05 s⁻¹	
A12U A14U A15U	0.000236 ± 5.9e-05 s⁻¹	0.00051 ± 0.00013 s⁻¹	0.00219 ± 0.00059 s⁻¹	
U30G A42G U56C	0.000132 ± 4.7e-05 s⁻¹	0.000353 ± 0.00011 s⁻¹	0.000492 ± 0.00016 s⁻¹	
U55C G59C	< 1e-05 s⁻¹	< 1e-05 s⁻¹		
G7U C61U	< 1e-05 s⁻¹	< 1e-05 s⁻¹		< 1e-05 s⁻¹
C11G A12G G13C A14G	< 1e-05 s⁻¹	< 1e-05 s⁻¹	< 1e-05 s⁻¹	< 1e-05 s⁻¹
C11U G37C A39U U47G	< 1e-05 s⁻¹			
C11G A33U G44U U49A U65G	< 1e-05 s⁻¹	< 1e-05 s⁻¹	< 1e-05 s⁻¹	
C10U A12G G63U	< 1e-05 s⁻¹		< 1e-05 s⁻¹	
G35C A36G U49C A53C C68U	< 1e-05 s⁻¹	< 1e-05 s⁻¹	< 1e-05 s⁻¹	
G9U C34G G40C A48U C61U	< 1e-05 s⁻¹			
A39C U47A C50A U56C	< 1e-05 s⁻¹		< 1e-05 s⁻¹	
C10G G43U C50A	< 1e-05 s⁻¹		< 1e-05 s⁻¹	
C11A A48C	< 1e-05 s⁻¹	< 1e-05 s⁻¹	< 1e-05 s⁻¹	
G13U A15U A36C A42G G59C C67G	< 1e-05 s⁻¹			
C10A U45C	< 1e-05 s⁻¹	< 1e-05 s⁻¹	< 1e-05 s⁻¹	< 1e-05 s⁻¹
